Measurements from patent US20250135039A1, “INHIBITOR-RESISTANT MGMT MODIFICATIONS AND MODIFICATION OF MGMT-ENCODING NUCLEIC ACIDS” (Ensoma, Inc., priority 2022, published 2025).

Test system: U251 human glioblastoma cell line
Assay: in vitro FM-HCR assay of MGMT activity (mPlum O^6MeG reporter plasmid)
Assay type: cell-based
Settings: for Reporter expression (%) mean, O^6BG: 100 μM O^6BG; for Reporter expression (%) mean, O^6BG / Reporter expression (%) mean, DMSO: U251 cells, flow cytometry 24 h after transfection, damaged/undamaged reporter, inversely related to MGMT activity; for Reporter expression (%) mean, DMSO: 0.1% DMSO; for MGMT activity (a.u.) DMSO / MGMT activity (% of WT) DMSO: DMSO condition; for MGMT activity (a.u.) DMSO / MGMT activity (a.u.) O^6BG: determined from percent reporter expression; for MGMT activity (% of WT) DMSO / MGMT activity (% of WT) O^6BG: relative to wild-type MGMT in same condition; for Relative MGMT activity (%): MGMT activity (a.u.) in O^6BG divided by DMSO x 100, higher values indicate resistance; for MGMT activity (a.u.) O^6BG / MGMT activity (% of WT) O^6BG: O^6BG condition; for Ratio percent reporter expression (O^6BG/DMSO): lower values indicate resistance to O^6BG; for O^6BG resistance relative to WT (%): percentage difference in relative MGMT activity between variant and wild-type MGMT
Outline: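 U251 cells transfected with MGMT variant plasmid, mPlum O^6MeG reporter (or undamaged mPlum plasmid) and BFP control, in 100 μM O^6BG or 0.1% DMSO; flow cytometry at 24 h. mPlum count×intensity normalized to BFP; percent reporter expression = damaged/undamaged ×100, inversely related to MGMT activity.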

B1: Y158F: MGMT polypeptide with mutation Y158F (protein)
chain: MDKDCEMKRTTLDSPLGKLELSGCEQGLHEIKLLGKGTSAADAVEVPAPAAVLGGPEPLMQCTAWLNAYFHQPEAIEEFPVPALHHPVFQQESFTRQVLWKLLKVVKFGEVISYQQLAALAGNPKAARAVGGAMRGNPVPILIPCHRVVCSSGAVGNFSGGLAVKEWLLAHEGHRLGKPGLGGSSGLAGAWLKGAGATSGSPPAGRN
- Reporter expression (%) mean, O^6BG: 61.3%
- Reporter expression (%) mean, DMSO: 12.3%
- MGMT activity (a.u.) DMSO: 8.11 a.u.
- MGMT activity (% of WT) DMSO: 150.0 % of WT
- Relative MGMT activity (%): 20.1%
- MGMT activity (a.u.) O^6BG: 1.63 a.u.
- MGMT activity (% of WT) O^6BG: 114.1 % of WT
- Ratio percent reporter expression (O^6BG/DMSO): 4.97
- O^6BG resistance relative to WT (%): −23.9%

B2: Y158W: MGMT polypeptide with mutation Y158W (protein)
chain: MDKDCEMKRTTLDSPLGKLELSGCEQGLHEIKLLGKGTSAADAVEVPAPAAVLGGPEPLMQCTAWLNAYFHQPEAIEEFPVPALHHPVFQQESFTRQVLWKLLKVVKFGEVISYQQLAALAGNPKAARAVGGAMRGNPVPILIPCHRVVCSSGAVGNWSGGLAVKEWLLAHEGHRLGKPGLGGSSGLAGAWLKGAGATSGSPPAGRN
- Reporter expression (%) mean, O^6BG: 86.7%
- Reporter expression (%) mean, DMSO: 26.0%
- MGMT activity (a.u.) DMSO: 3.85 a.u.
- MGMT activity (% of WT) DMSO: 71.2 % of WT
- Relative MGMT activity (%): 30.0%
- MGMT activity (a.u.) O^6BG: 1.15 a.u.
- MGMT activity (% of WT) O^6BG: 80.8 % of WT
- Ratio percent reporter expression (O^6BG/DMSO): 3.33
- O^6BG resistance relative to WT (%): 13.5%

B3: G160A: MGMT polypeptide with mutation G160A (protein)
chain: MDKDCEMKRTTLDSPLGKLELSGCEQGLHEIKLLGKGTSAADAVEVPAPAAVLGGPEPLMQCTAWLNAYFHQPEAIEEFPVPALHHPVFQQESFTRQVLWKLLKVVKFGEVISYQQLAALAGNPKAARAVGGAMRGNPVPILIPCHRVVCSSGAVGNYSAGLAVKEWLLAHEGHRLGKPGLGGSSGLAGAWLKGAGATSGSPPAGRN
- Reporter expression (%) mean, O^6BG: 74.5%
- Reporter expression (%) mean, DMSO: 15.5%
- MGMT activity (a.u.) DMSO: 6.45 a.u.
- MGMT activity (% of WT) DMSO: 119.4 % of WT
- Relative MGMT activity (%): 20.8%
- MGMT activity (a.u.) O^6BG: 1.34 a.u.
- MGMT activity (% of WT) O^6BG: 94.0 % of WT
- Ratio percent reporter expression (O^6BG/DMSO): 4.81
- O^6BG resistance relative to WT (%): −21.3%

B4: S159Y: MGMT polypeptide with mutation S159Y (protein)
chain: MDKDCEMKRTTLDSPLGKLELSGCEQGLHEIKLLGKGTSAADAVEVPAPAAVLGGPEPLMQCTAWLNAYFHQPEAIEEFPVPALHHPVFQQESFTRQVLWKLLKVVKFGEVISYQQLAALAGNPKAARAVGGAMRGNPVPILIPCHRVVCSSGAVGNYYGGLAVKEWLLAHEGHRLGKPGLGGSSGLAGAWLKGAGATSGSPPAGRN
- Reporter expression (%) mean, O^6BG: 142.7%
- Reporter expression (%) mean, DMSO: 26.0%
- MGMT activity (a.u.) DMSO: 3.85 a.u.
- MGMT activity (% of WT) DMSO: 71.2 % of WT
- Relative MGMT activity (%): 18.2%
- MGMT activity (a.u.) O^6BG: 0.70 a.u.
- MGMT activity (% of WT) O^6BG: 49.1 % of WT
- Ratio percent reporter expression (O^6BG/DMSO): 5.49
- O^6BG resistance relative to WT (%): −31.0%

B5: S159I: MGMT polypeptide with mutation S159I (protein)
chain: MDKDCEMKRTTLDSPLGKLELSGCEQGLHEIKLLGKGTSAADAVEVPAPAAVLGGPEPLMQCTAWLNAYFHQPEAIEEFPVPALHHPVFQQESFTRQVLWKLLKVVKFGEVISYQQLAALAGNPKAARAVGGAMRGNPVPILIPCHRVVCSSGAVGNYIGGLAVKEWLLAHEGHRLGKPGLGGSSGLAGAWLKGAGATSGSPPAGRN
- Reporter expression (%) mean, O^6BG: 40.3%
- Reporter expression (%) mean, DMSO: 18.0%
- MGMT activity (a.u.) DMSO: 5.56 a.u.
- MGMT activity (% of WT) DMSO: 102.8 % of WT
- Relative MGMT activity (%): 44.6%
- MGMT activity (a.u.) O^6BG: 2.48 a.u.
- MGMT activity (% of WT) O^6BG: 173.6 % of WT
- Ratio percent reporter expression (O^6BG/DMSO): 2.24
- O^6BG resistance relative to WT (%): 68.9%

B6: S159W: MGMT polypeptide with mutation S159W (protein)
chain: MDKDCEMKRTTLDSPLGKLELSGCEQGLHEIKLLGKGTSAADAVEVPAPAAVLGGPEPLMQCTAWLNAYFHQPEAIEEFPVPALHHPVFQQESFTRQVLWKLLKVVKFGEVISYQQLAALAGNPKAARAVGGAMRGNPVPILIPCHRVVCSSGAVGNYWGGLAVKEWLLAHEGHRLGKPGLGGSSGLAGAWLKGAGATSGSPPAGRN
- Reporter expression (%) mean, O^6BG: 108.0%
- Reporter expression (%) mean, DMSO: 31.3%
- MGMT activity (a.u.) DMSO: 3.19 a.u.
- MGMT activity (% of WT) DMSO: 59.0 % of WT
- Relative MGMT activity (%): 29.0%
- MGMT activity (a.u.) O^6BG: 0.93 a.u.
- MGMT activity (% of WT) O^6BG: 64.8 % of WT
- Ratio percent reporter expression (O^6BG/DMSO): 3.45
- O^6BG resistance relative to WT (%): 9.8%

B7: Y158H: MGMT polypeptide with mutation Y158H (protein)
chain: MDKDCEMKRTTLDSPLGKLELSGCEQGLHEIKLLGKGTSAADAVEVPAPAAVLGGPEPLMQCTAWLNAYFHQPEAIEEFPVPALHHPVFQQESFTRQVLWKLLKVVKFGEVISYQQLAALAGNPKAARAVGGAMRGNPVPILIPCHRVVCSSGAVGNHSGGLAVKEWLLAHEGHRLGKPGLGGSSGLAGAWLKGAGATSGSPPAGRN
- Reporter expression (%) mean, O^6BG: 30.3%
- Reporter expression (%) mean, DMSO: 23.3%
- MGMT activity (a.u.) DMSO: 4.29 a.u.
- MGMT activity (% of WT) DMSO: 79.3 % of WT
- Relative MGMT activity (%): 76.9%
- MGMT activity (a.u.) O^6BG: 3.30 a.u.
- MGMT activity (% of WT) O^6BG: 230.8 % of WT
- Ratio percent reporter expression (O^6BG/DMSO): 1.30
- O^6BG resistance relative to WT (%): 191.1%

B8: S159F: MGMT polypeptide with mutation S159F (protein)
chain: MDKDCEMKRTTLDSPLGKLELSGCEQGLHEIKLLGKGTSAADAVEVPAPAAVLGGPEPLMQCTAWLNAYFHQPEAIEEFPVPALHHPVFQQESFTRQVLWKLLKVVKFGEVISYQQLAALAGNPKAARAVGGAMRGNPVPILIPCHRVVCSSGAVGNYFGGLAVKEWLLAHEGHRLGKPGLGGSSGLAGAWLKGAGATSGSPPAGRN
- Reporter expression (%) mean, O^6BG: 102.7%
- Reporter expression (%) mean, DMSO: 23.0%
- MGMT activity (a.u.) DMSO: 4.35 a.u.
- MGMT activity (% of WT) DMSO: 80.4 % of WT
- Relative MGMT activity (%): 22.4%
- MGMT activity (a.u.) O^6BG: 0.97 a.u.
- MGMT activity (% of WT) O^6BG: 68.2 % of WT
- Ratio percent reporter expression (O^6BG/DMSO): 4.46
- O^6BG resistance relative to WT (%): −15.2%

B9: Y158M: MGMT polypeptide with mutation Y158M (protein)
chain: MDKDCEMKRTTLDSPLGKLELSGCEQGLHEIKLLGKGTSAADAVEVPAPAAVLGGPEPLMQCTAWLNAYFHQPEAIEEFPVPALHHPVFQQESFTRQVLWKLLKVVKFGEVISYQQLAALAGNPKAARAVGGAMRGNPVPILIPCHRVVCSSGAVGNMSGGLAVKEWLLAHEGHRLGKPGLGGSSGLAGAWLKGAGATSGSPPAGRN
- Reporter expression (%) mean, O^6BG: 60.0%
- Reporter expression (%) mean, DMSO: 47.7%
- MGMT activity (a.u.) DMSO: 2.10 a.u.
- MGMT activity (% of WT) DMSO: 38.8 % of WT
- Relative MGMT activity (%): 79.4%
- MGMT activity (a.u.) O^6BG: 1.67 a.u.
- MGMT activity (% of WT) O^6BG: 116.7 % of WT
- Ratio percent reporter expression (O^6BG/DMSO): 1.26
- O^6BG resistance relative to WT (%): 200.6%
